Test results taken from article doi:10.1101/2024.07.02.601760, “Multi-dimensional demarcation of phylogenetic groups of plant 14-3-3 isoforms using biochemical signatures” (bioRxiv, 2024).

Target: the molecule itself
Assay: SEC-MALS; Superdex 200 Increase 10/300, 0.8 ml/min; 65 µl of ~3 mg/ml or 100 μM per monomer loaded; 20 mM Tris-HCl pH 7.5, 150 mM NaCl, 5 mM βME, 3 mM NaN3; samples before preparative SEC; self-association, monomers to dimer (small tetramer peak for six isoforms)

Protein | stoichiometry N
Arabidopsis thaliana 14-3-3 lambda (natural protein, UniProt P48349 1-248, looked up, 14-3-3 lambda, Arabidopsis thaliana, non-epsilon group; construct provided by Prof; Robert J. Ferl; source: E. coli C41(DE3), purified (IMAC, thrombin cleavage of the His6-tag, subtractive IMAC, preparative SEC; aliquots before preparative SEC for SEC-MALS)) MAATLGRDQYVYMAKLAEQAERYEEMVQFMEQLVTGATPAEELTVEERNLLSVAYKNVIGSLRAAWRIVSSIEQKEESRKNDEHVSLVKDYRSKVESELSSVCSGILKLLDSHLIPSAGASESKVFYLKMKGDYHRYMAEFKSGDERKTAAEDTMLAYKAAQDIAAADMAPTHPIRLGLALNFSVFYYEILNSSDKACNMAKQAFEEAIAELDTLGEESYKDSTLIMQLLRDNLTLWTSDMQEQMDEA | 2
Arabidopsis thaliana 14-3-3 phi (natural protein, UniProt P46077 1-267, looked up, 14-3-3 phi, Arabidopsis thaliana, non-epsilon group; construct provided by Prof; Robert J. Ferl; source: E. coli C41(DE3), purified (IMAC, thrombin cleavage of the His6-tag, subtractive IMAC, preparative SEC; aliquots before preparative SEC for SEC-MALS)) MAAPPASSSAREEFVYLAKLAEQAERYEEMVEFMEKVAEAVDKDELTVEERNLLSVAYKNVIGARRASWRIISSIEQKEESRGNDDHVTTIRDYRSKIESELSKICDGILKLLDTRLVPASANGDSKVFYLKMKGDYHRYLAEFKTGQERKDAAEHTLTAYKAAQDIANAELAPTHPIRLGLALNFSVFYYEILNSPDRACNLAKQAFDEAIAELDTLGEESYKDSTLIMQLLRDNLTLWTSDMQDESPEEIKEAAAPKPAEEQKEI | 2
Arabidopsis thaliana 14-3-3 upsilon (natural protein, UniProt P42645 1-268, looked up, 14-3-3 upsilon, Arabidopsis thaliana (Col-0), non-epsilon group; source: E. coli BL21(DE3), purified (IMAC, thrombin cleavage of the His6-tag, subtractive IMAC, preparative SEC; aliquots before preparative SEC for SEC-MALS)) MSSDSSREENVYLAKLAEQAERYEEMVEFMEKVAKTVETEELTVEERNLLSVAYKNVIGARRASWRIISSIEQKEDSRGNSDHVSIIKDYRGKIETELSKICDGILNLLEAHLIPAASLAESKVFYLKMKGDYHRYLAEFKTGAERKEAAESTLVAYKSAQDIALADLAPTHPIRLGLALNFSVFYYEILNSSDRACSLAKQAFDEAISELDTLGEESYKDSTLIMQLLRDNLTLWTSDLNDEAGDDIKEAPKEVQKVDEQAQPPPSQ | 2
Arabidopsis thaliana 14-3-3 mu (natural protein, UniProt Q96299 1-263, looked up, 14-3-3 mu, Arabidopsis thaliana, epsilon group; pET28a construct obtained by gene synthesis; source: E. coli BL21(DE3), purified (IMAC, thrombin cleavage of the His6-tag, subtractive IMAC, preparative SEC; aliquots before preparative SEC for SEC-MALS)) MGSGKERDTFVYLAKLSEQAERYEEMVESMKSVAKLNVDLTVEERNLLSVGYKNVIGSRRASWRIFSSIEQKEAVKGNDVNVKRIKEYMEKVELELSNICIDIMSVLDEHLIPSASEGESTVFFNKMKGDYYRYLAEFKSGNERKEAADQSLKAYEIATTAAEAKLPPTHPIRLGLALNFSVFYYEIMNAPERACHLAKQAFDEAISELDTLNEESYKDSTLIMQLLRDNLTLWTSDISEEGGDDAHKTNGSAKPGAGGDDAE | 2
Arabidopsis thaliana 14-3-3 psi (natural protein, UniProt P42644 1-255, looked up, 14-3-3 psi, Arabidopsis thaliana, non-epsilon group; construct provided by Prof; Robert J. Ferl; source: E. coli C41(DE3), purified (IMAC, thrombin cleavage of the His6-tag, subtractive IMAC, preparative SEC; aliquots before preparative SEC for SEC-MALS)) MSTREENVYMAKLAEQAERYEEMVEFMEKVAKTVDVEELSVEERNLLSVAYKNVIGARRASWRIISSIEQKEESKGNEDHVAIIKDYRGKIESELSKICDGILNVLEAHLIPSASPAESKVFYLKMKGDYHRYLAEFKAGAERKEAAESTLVAYKSASDIATAELAPTHPIRLGLALNFSVFYYEILNSPDRACSLAKQAFDDAIAELDTLGEESYKDSTLIMQLLRDNLTLWTSDMTDEAGDEIKEASKPDGAE | 2
Arabidopsis thaliana 14-3-3 omega (natural protein, 14-3-3 omega, Arabidopsis thaliana, non-epsilion group; pET28a construct obtained by gene synthesis; source: E. coli BL21(DE3), purified (IMAC, thrombin cleavage of the His6-tag, subtractive IMAC, preparative SEC; aliquots before preparative SEC for SEC-MALS)) MASGREEFVYMAKLAEQAERYEEMVEFMEKVSAAVDGDELTVEERNLLSVAYKNVIGARRASWRIISSIEQKEESRGNDDHVTAIREYRSKIETELSGICDGILKLLDSRLIPAAASGDSKVFYLKMKGDYHRYLAEFKTGQERKDAAEHTLAAYKSAQDIANAELAPTHPIRLGLALNFSVFYYEILNSPDRACNLAKQAFDEAIAELDTLGEESYKDSTLIMQLLRDNLTLWTSD | 2
Arabidopsis thaliana 14-3-3 chi (natural protein, UniProt P42643 1-267, looked up, 14-3-3 chi, Arabidopsis thaliana, non-epsilon group; source: E. coli BL21(DE3), purified (IMAC, thrombin cleavage of the His6-tag, subtractive IMAC, preparative SEC; aliquots before preparative SEC for SEC-MALS)) MATPGASSARDEFVYMAKLAEQAERYEEMVEFMEKVAKAVDKDELTVEERNLLSVAYKNVIGARRASWRIISSIEQKEESRGNDDHVSLIRDYRSKIETELSDICDGILKLLDTILVPAAASGDSKVFYLKMKGDYHRYLAEFKSGQERKDAAEHTLTAYKAAQDIANSELAPTHPIRLGLALNFSVFYYEILNSPDRACNLAKQAFDEAIAELDTLGEESYKDSTLIMQLLRDNLTLWTSDMQDDVADDIKEAAPAAAKPADEQQS | 2
Arabidopsis thaliana 14-3-3 nu (natural protein, UniProt Q96300 1-265, looked up, 14-3-3 nu, Arabidopsis thaliana (Col-0), non-epsilon group; source: E. coli BL21(DE3), purified (IMAC, thrombin cleavage of the His6-tag, subtractive IMAC, preparative SEC; aliquots before preparative SEC for SEC-MALS)) MSSSREENVYLAKLAEQAERYEEMVEFMEKVAKTVDTDELTVEERNLLSVAYKNVIGARRASWRIISSIEQKEESRGNDDHVSIIKDYRGKIETELSKICDGILNLLDSHLVPTASLAESKVFYLKMKGDYHRYLAEFKTGAERKEAAESTLVAYKSAQDIALADLAPTHPIRLGLALNFSVFYYEILNSPDRACSLAKQAFDEAISELDTLGEESYKDSTLIMQLLRDNLTLWNSDINDEAGGDEIKEASKHEPEEGKPAETGQ | 2
Arabidopsis thaliana 14-3-3 iota (natural protein, UniProt Q9C5W6 1-268, looked up, 14-3-3 iota, Arabidopsis thaliana, epsilon group; pET28a construct obtained by gene synthesis; also called iota WT; source: E. coli BL21(DE3), purified (IMAC, thrombin cleavage of the His6-tag, subtractive IMAC, preparative SEC; aliquots before preparative SEC for SEC-MALS)) MSSSGSDKERETFVYMAKLSEQAERYDEMVETMKKVARVNSELTVEERNLLSVGYKNVIGARRASWRIMSSIEQKEESKGNESNVKQIKGYRQKVEDELANICQDILTIIDQHLIPHATSGEATVFYYKMKGDYYRYLAEFKTEQERKEAAEQSLKGYEAATQAASTELPSTHPIRLGLALNFSVFYYEIMNSPERACHLAKQAFDEAIAELDTLSEESYKDSTLIMQLLRDNLTLWTSDLPEDGGEDNIKTEESKQEQAKPADATEN | 2
Arabidopsis thaliana 14-3-3 epsilon (natural protein, UniProt P48347 1-254, looked up, 14-3-3 epsilon, Arabidopsis thaliana, epsilon group; pET28a construct obtained by gene synthesis; source: E. coli BL21(DE3), purified (IMAC, thrombin cleavage of the His6-tag, subtractive IMAC, preparative SEC; aliquots before preparative SEC for SEC-MALS)) MENEREKQVYLAKLSEQTERYDEMVEAMKKVAQLDVELTVEERNLVSVGYKNVIGARRASWRILSSIEQKEESKGNDENVKRLKNYRKRVEDELAKVCNDILSVIDKHLIPSSNAVESTVFFYKMKGDYYRYLAEFSSGAERKEAADQSLEAYKAAVAAAENGLAPTHPVRLGLALNFSVFYYEILNSPESACQLAKQAFDDAIAELDSLNEESYKDSTLIMQLLRDNLTLWTSDLNEEGDERTKGADEPQDEN | 2

Target: the molecule itself
Assay: native gel or EMSA; native PAGE, Tris-glycine pH 8.6, 15% or 15-25% gradient acrylamide, 2 h at room temperature, samples 0.33 mg/ml in SEC buffer; self-association, dimer to monomers

Protein | binding result
Arabidopsis thaliana 14-3-3 iota T32F (natural protein, UniProt Q9C5W6 1-268, looked up, 14-3-3 iota, Arabidopsis thaliana, single mutant T32F made by megaprimer PCR on pET28a-14-3-3 iota; Same limits as m9; also called M1; source: E. coli BL21(DE3), purified (IMAC, thrombin cleavage of the His6-tag, subtractive IMAC, preparative SEC)) MSSSGSDKERETFVYMAKLSEQAERYDEMVEFMKKVARVNSELTVEERNLLSVGYKNVIGARRASWRIMSSIEQKEESKGNESNVKQIKGYRQKVEDELANICQDILTIIDQHLIPHATSGEATVFYYKMKGDYYRYLAEFKTEQERKEAAEQSLKGYEAATQAASTELPSTHPIRLGLALNFSVFYYEIMNSPERACHLAKQAFDEAIAELDTLSEESYKDSTLIMQLLRDNLTLWTSDLPEDGGEDNIKTEESKQEQAKPADATEN | binds
Arabidopsis thaliana 14-3-3 iota G54A (natural protein, UniProt Q9C5W6 1-268, looked up, 14-3-3 iota, Arabidopsis thaliana, single mutant G54A made by megaprimer PCR on pET28a-14-3-3 iota; Same limits as m9; also called M3; source: E. coli BL21(DE3), purified (IMAC, thrombin cleavage of the His6-tag, subtractive IMAC, preparative SEC)) MSSSGSDKERETFVYMAKLSEQAERYDEMVETMKKVARVNSELTVEERNLLSVAYKNVIGARRASWRIMSSIEQKEESKGNESNVKQIKGYRQKVEDELANICQDILTIIDQHLIPHATSGEATVFYYKMKGDYYRYLAEFKTEQERKEAAEQSLKGYEAATQAASTELPSTHPIRLGLALNFSVFYYEIMNSPERACHLAKQAFDEAIAELDTLSEESYKDSTLIMQLLRDNLTLWTSDLPEDGGEDNIKTEESKQEQAKPADATEN | binds
Arabidopsis thaliana 14-3-3 iota N84H (natural protein, UniProt Q9C5W6 1-268, looked up, 14-3-3 iota, Arabidopsis thaliana, single mutant N84H made by megaprimer PCR on pET28a-14-3-3 iota; Same limits as m9; also called M2; source: E. coli BL21(DE3), purified (IMAC, thrombin cleavage of the His6-tag, subtractive IMAC, preparative SEC)) MSSSGSDKERETFVYMAKLSEQAERYDEMVETMKKVARVNSELTVEERNLLSVGYKNVIGARRASWRIMSSIEQKEESKGNESHVKQIKGYRQKVEDELANICQDILTIIDQHLIPHATSGEATVFYYKMKGDYYRYLAEFKTEQERKEAAEQSLKGYEAATQAASTELPSTHPIRLGLALNFSVFYYEIMNSPERACHLAKQAFDEAIAELDTLSEESYKDSTLIMQLLRDNLTLWTSDLPEDGGEDNIKTEESKQEQAKPADATEN | binds
